Results on two substances are retold here after publication PMC3264624.

Common to all, as to experiment: FRET or BRET; FLIM-FRET, Cerulean (donor) and mOrange (acceptor) fusions co-expressed in N. benthamiana leaves, two days post infiltration; Cerulean fluorescence lifetime, multiphoton excitation at 810 nm
Assay [1] concerns the target LjSYMREM1:mOrange (full length) (Lotus japonicus).
Assay [2] has as its target LjSYMREM1C:mOrange (Lotus japonicus).
Assay [3] addresses NFR1:Cerulean (Lotus japonicus) (UniProt Q70KR8).
Chain of UniProt Q70KR8 (Q70KR8 entry or part of it): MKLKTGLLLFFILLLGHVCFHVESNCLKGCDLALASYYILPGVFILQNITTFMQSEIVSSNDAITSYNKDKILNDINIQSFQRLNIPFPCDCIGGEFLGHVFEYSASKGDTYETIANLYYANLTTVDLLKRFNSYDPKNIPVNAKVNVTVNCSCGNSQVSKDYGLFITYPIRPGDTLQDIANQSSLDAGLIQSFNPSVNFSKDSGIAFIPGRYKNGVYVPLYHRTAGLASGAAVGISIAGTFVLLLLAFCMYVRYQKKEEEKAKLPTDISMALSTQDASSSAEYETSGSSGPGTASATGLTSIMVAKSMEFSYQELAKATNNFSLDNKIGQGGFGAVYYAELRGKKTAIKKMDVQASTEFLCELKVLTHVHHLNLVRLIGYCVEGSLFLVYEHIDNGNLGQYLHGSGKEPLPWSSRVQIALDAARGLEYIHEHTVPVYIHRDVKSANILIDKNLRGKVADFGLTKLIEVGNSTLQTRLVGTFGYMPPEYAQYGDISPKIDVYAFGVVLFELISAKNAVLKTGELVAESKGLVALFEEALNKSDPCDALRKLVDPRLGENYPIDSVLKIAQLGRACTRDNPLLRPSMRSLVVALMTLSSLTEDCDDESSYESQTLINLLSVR

With “NFR1:Cerulean (from UniProt Q70KR8 1-621) (receptor)”, the Cerulean fluorescence lifetime was 1.99 ns in assay [1] and 1.97 ns in assay [2]. Also, the FRET efficiency is 8.8% in assay [1] and 9.6% in assay [2].

For the substance LjSYMREM1N:mOrange (domain or fragment), in assay [3], the Cerulean fluorescence lifetime was determined as 2.09 ns and the FRET efficiency came out at 4.1%.
